In the data set the test system is 10C12 F(ab')2-leucine zipper.

With factor X, the “rate of FX activation by relipidated TF(1-243):FVIIa after incubating 10C12 with the substrate FX” value is on record as 10C12 at up to 200 µg/ml did not inhibit FXa generation in either experimental setting.

The values are drawn from patent US20060193851A1.
